Data set [1] concerns HeLa Kyoto. As to the kind of experiment: solubility change mitosis vs G1/S (difference of NP-40 vs SDS log2 ratios) (log2 ratio difference); higher = more soluble in mitosis.
For data set [2], the system named is HeLa Kyoto. As to the kind of experiment: solubility in G1/S (NP-40 vs SDS abundance) (log2 ratio); higher = more soluble. To be noted: cell cycle stage: G1/S.
Data set [3] deals with HeLa Kyoto. Put plainly: thermal stability score vs G1/S (z-score of summed log2 fold changes over temperatures); higher = more thermally stable than in G1/S.
Data set [4] relates to HeLa Kyoto. Put plainly: melting temperature (median over replicates), in situ; higher = more thermally stable.
Setting [5] is: cell cycle stage: early G1 (4.5 h after nocodazole release).
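Throughout, for melting temperature (median over replicates), in situ: HeLa Kyoto cells synchronized by double thymidine or nocodazole block, proteins quantified by TMT10plex mass spectrometry, three independent biological replicates.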
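Throughout, for solubility change mitosis vs G1/S (difference of NP-40 vs SDS log2 ratios): synchronized HeLa Kyoto cells (double thymidine block for G1/S, nocodazole release for mitosis), protein amounts in NP-40 versus SDS lysates quantified by mass spectrometry, three biological replicates.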
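Throughout, for solubility in G1/S (NP-40 vs SDS abundance): HeLa Kyoto cells arrested at G1/S by double thymidine block, proteins quantified by TMT10plex mass spectrometry in mild NP-40 versus SDS extracts, three biological replicates.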
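Throughout, for thermal stability score vs G1/S (z-score of summed log2 fold changes over temperatures): synchronized HeLa Kyoto cells, proteins quantified by TMT10plex mass spectrometry, three biological replicates, mitosis taken 0.5 h after nocodazole release, G1/S directly after double thymidine block.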

Consider “MSGDGATEQAAEYVPEKVKKAEKKLEENPYDLDAWSILIREAQNQPIDKARKTYERLVAQFPSSGRFWKLYIEAEIKAKNYDKVEKLFQRCLMKVLHIDLWKCYLSYVRETKGKLPSYKEKMAQAYDFALDKIGMEIMSYQIWVDYINFLKGVEAVGSYAENQRITAVRRVYQRGCVNPMINIEQLWRDYNKYEEGINIHLAKKMIEDRSRDYMNARRVAKEYETVMKGLDRNAPSVPPQNTPQEAQQVDMWKKYIQWEKSNPLRTEDQTLITKRVMFAYEQCLLVLGHHPDIWYEAAQYLEQSSKLLAEKGDMNNAKLFSDEAANIYERAISTLLKKNMLLYFAYADYEESRMKYEKVHSIYNRLLAIEDIDPTLVYIQYMKFARRAEGIKSGRMIFKKAREDTRTRHHVYVTAALMEYYCSKDKSVAFKIFELGLKKYGDIPEYVLAYIDYLSHLNEDNNTRVLFERVLTSGSLPPEKSGEIWARFLAFESNIGDLASILKVEKRRFTAFKEEYEGKETALLVDRYKFMDLYPCSASELKALGYKDVSRAKLAAIIPDPVVAPSIVPVLKDEVDRKPEYPKPDTQQMIPFQPRHLAPPGLHPVPGGVFPVPPAAVVLMKLLPPPICFQGPFVQVDELMEIFRRCKIPNTVEEAVRIITGGAPELAVEGNGPVESNAVLTKAVKRPNEDSDEDEEKGAVVPPVHDIYRARQQKRIR [CSTF3]”, for which, in the data set on HeLa Kyoto [1], the “solubility change mitosis (log2)” value is -0.000668. In addition, in the data set on HeLa Kyoto [2], the “solubility in G1/S (log2)” value was -0.0695. Also, the thermal stability score was 0.26 in the data set on HeLa Kyoto [3] (setting [5]) and -0.413 in the data set on HeLa Kyoto [3] (cell cycle stage: mitosis). Besides, the melting temperature in the data set on HeLa Kyoto [4] (cell cycle stage: G1/S) was 52 °C; in the data set on HeLa Kyoto [4] (cell cycle stage: mitosis), 51.9 °C.

Consider “MSGDSSGRGPEGRGRGRDPHRDRTRSRSRSRSPLSPRSRRGSARERREAPERPSLEDTEPSDSGDEMMDPASLEAEADQGLCRQIRHQYRALINSVQQNREDILNAGDKLTEVLEEANTLFNEVSRAREAVLDAHFLVLASDLGKEKAKQLRSDLSSFDMLRYVETLLTHMGVNPLEAEELIRDEDSPDFEFIVYDSWKITGRTAENTFNKTHTFHFLLGSIYGECPVPKPRVDRPRKVPVIQEERAMPAQLRRMEESHQEATEKEVERILGLLQTYFREDPDTPMSFFDFVVDPHSFPRTVENIFHVSFIIRDGFARIRLDQDRLPVIEPVSINEENEGFEHNTQVRNQGIIALSYRDWEEIVKTFEISEPVITPSQRQQKPSA [NSMCE4A]”, for which, in the data set with HeLa Kyoto [1], the “solubility change mitosis (log2)” value was found to be 0.00196. Further, the “solubility in G1/S (log2)” value with HeLa Kyoto [2] was 0.182. For the same sequence, the thermal stability score was -2.46 in the data set with HeLa Kyoto [3] (setting [5]) and -1.49 in the data set on HeLa Kyoto [3] (cell cycle stage: mitosis). For the same sequence, the results for the melting temperature with HeLa Kyoto [4] (cell cycle stage: G1/S) and with HeLa Kyoto [4] (cell cycle stage: mitosis) were 49.9 °C and 50.2 °C, respectively.

As to “MSGELPPNINIKEPRWDQSTFIGRANHFFTVTDPRNILLTNEQLESARKIVHDYRQGIVPPGLTENELWRAKYIYDSAFHPDTGEKMILIGRMSAQVPMNMTITGCMMTFYRTTPAVLFWQWINQSFNAVVNYTNRSGDAPLTVNELGTAYVSATTGAVATALGLNALTKHVSPLIGRFVPFAAVAAANCINIPLMRQRELKVGIPVTDENGNRLGESANAAKQAITQVVVSRILMAAPGMAIPPFIMNTLEKKAFLKRFPWMSAPIQVGLVGFCLVFATPLCCALFPQKSSMSVTSLEAELQAKIQESHPELRRVYFNKGL [SFXN1]”, the “solubility change mitosis (log2)” value in the data set with HeLa Kyoto [1] is -0.0506. Moreover, the “solubility in G1/S (log2)” value in the data set with HeLa Kyoto [2] came to 0.371. Moreover, the thermal stability score in the data set with HeLa Kyoto [3] (setting [5]) was -0.303; with HeLa Kyoto [3] (cell cycle stage: mitosis) it was -0.959. The melting temperature came to 54.4 °C in the data set with HeLa Kyoto [4] (cell cycle stage: G1/S) and 54.8 °C with HeLa Kyoto [4] (cell cycle stage: mitosis).

Regarding “MSGEPGQTSVAPPPEEVEPGSGVRIVVEYCEPCGFEATYLELASAVKEQYPGIEIESRLGGTGAFEIEINGQLVFSKLENGGFPYEKDLIEAIRRASNGETLEKITNSRPPCVIL [MIEN1]”, the “solubility change mitosis (log2)” value in the data set on HeLa Kyoto [1] was -0.0195. Moreover, the “solubility in G1/S (log2)” value with HeLa Kyoto [2] was 0.353. In addition, the thermal stability score is -1.21 with HeLa Kyoto [3] (setting [5]) and 0.00566 in the data set with HeLa Kyoto [3] (cell cycle stage: mitosis). For the same sequence, the values for the melting temperature in the data set on HeLa Kyoto [4] (cell cycle stage: G1/S) and in the data set with HeLa Kyoto [4] (cell cycle stage: mitosis) were 50.8 °C and 51.1 °C, respectively.

For “MSGFDDPGIFYSDSFGGDAQADEGQARKSQLQRRFKEFLRQYRVGTDRTGFTFKYRDELKRHYNLGEYWIEVEMEDLASFDEDLADYLYKQPAEHLQLLEEAAKEVADEVTRPRPSGEEVLQDIQVMLKSDASPSSIRSLKSDMMSHLVKIPGIIIAASAVRAKATRISIQCRSCRNTLTNIAMRPGLEGYALPRKCNTDQAGRPKCPLDPYFIMPDKCKCVDFQTLKLQELPDAVPHGEMPRHMQLYCDRYLCDKVVPGNRVTIMGIYSIKKFGLTTSRGRDRVGVGIRSSYIRVLGIQVDTDGSGRSFAGAVSPQEEEEFRRLAALPNVYEVISKSIAPSIFGGTDMKKAIACLLFGGSRKRLPDGLTRRGDINLLMLGDPGTAKSQLLKFVEKCSPIGVYTSGKGSSAAGLTASVMRDPSSRNFIMEGGAMVLADGGVVCIDEFDKMREDDRVAIHEAMEQQTISIAKAGITTTLNSRCSVLAAANSVFGRWDETKGEDNIDFMPTILSRFDMIFIVKDEHNEERDVMLAKHVITLHVSALTQTQAVEGEIDLAKLKKFIAYCRVKCGPRLSAEAAEKLKNRYIIMRSGARQHERDSDRRSSIPITVRQLEAIVRIAEALSKMKLQPFATEADVEEALRLFQVSTLDAALSGTLSGVEGFTSQEDQEMLSRIEKQLKRRFAIGSQVSEHSIIKDFTKQKYPEHAIHKVLQLMLRRGEIQHRMQRKVLYRLK [MCM5]”, the “solubility change mitosis (log2)” value with HeLa Kyoto [1] was -0.0997. Further, the “solubility in G1/S (log2)” value with HeLa Kyoto [2] is -0.322. The thermal stability score in the data set on HeLa Kyoto [3] (setting [5]) came to 1.16; in the data set with HeLa Kyoto [3] (cell cycle stage: mitosis), 0.714. Besides, the melting temperature with HeLa Kyoto [4] (cell cycle stage: G1/S) was 51.9 °C; in the data set on HeLa Kyoto [4] (cell cycle stage: mitosis), 51.4 °C.

These data come from the supplement of paper PMC5998384.
